Measured values taken from patent publication US20220204580A1 (AstraZeneca / MedImmune, published 2022).
Numbered stars: 1 amine (or outer) side, 2 acyl side, 3 side chain; on linkers, the order of the positions; unused ones are H or OH. Bridge positions count the residues as written; N and C are the ends. Square brackets hold non-standard residues; d marks the D form. Side chains are listed from the residue outwards. Ends that are not written are not given here. * marks the point of attachment. C18 diacid = O=C(O)CCCCCCCCCCCCCCCCC(=O)*; γGlu = O=C(O)[C@H](CCC(=O)[*:2])N[*:1]; Aib = CC(C)(N)C(=O)O

T1: human calcitonin receptor (human, UniProt P30988 25-474)
T1 sequence (looked up): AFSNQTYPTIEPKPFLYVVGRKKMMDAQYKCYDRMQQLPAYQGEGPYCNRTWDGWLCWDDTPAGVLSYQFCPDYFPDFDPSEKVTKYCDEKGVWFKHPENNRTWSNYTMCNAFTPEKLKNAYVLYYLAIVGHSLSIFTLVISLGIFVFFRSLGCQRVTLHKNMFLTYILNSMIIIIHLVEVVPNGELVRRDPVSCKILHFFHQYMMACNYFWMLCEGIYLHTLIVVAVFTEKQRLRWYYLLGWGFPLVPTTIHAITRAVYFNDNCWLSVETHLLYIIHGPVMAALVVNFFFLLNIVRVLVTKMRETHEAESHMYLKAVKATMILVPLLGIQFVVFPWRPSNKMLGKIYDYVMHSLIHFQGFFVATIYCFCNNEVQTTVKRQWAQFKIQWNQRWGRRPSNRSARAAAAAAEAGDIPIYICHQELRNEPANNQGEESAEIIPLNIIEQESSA

T2: human amylin receptor (calcitonin receptor co-expressed with receptor activity modifying protein, RAMP3) (human, UniProt P30988 25-474; O60896 24-148)
T2 sequence (looked up) 1: T1 sequence (looked up)
T2 sequence (looked up) 2: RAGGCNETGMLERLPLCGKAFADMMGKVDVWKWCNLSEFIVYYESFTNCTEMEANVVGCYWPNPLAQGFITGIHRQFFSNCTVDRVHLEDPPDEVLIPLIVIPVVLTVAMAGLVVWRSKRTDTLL

B1: Peptide 128 (SEQ ID NO: 128) (peptide)
peptide: K([γGlu-C18 diacid])KCNTATCATQRLAEFL[Aib]HSSNNFGPILPPTNVGSNTY-NH2
modifications: disulfide 3-8; N-terminus assumed
SMILES: CC[C@H](C)[C@H](NC(=O)[C@@H]1CCCN1C(=O)CNC(=O)[C@H](Cc1ccccc1)NC(=O)[C@H](CC(N)=O)NC(=O)[C@H](CC(N)=O)NC(=O)[C@H](CO)NC(=O)[C@H](CO)NC(=O)[C@H](Cc1c[nH]cn1)NC(=O)C(C)(C)NC(=O)[C@H](CC(C)C)NC(=O)[C@H](Cc1ccccc1)NC(=O)[C@H](CCC(=O)O)NC(=O)[C@H](C)NC(=O)[C@H](CC(C)C)NC(=O)[C@H](CCCNC(=N)N)NC(=O)[C@H](CCC(N)=O)NC(=O)[C@@H](NC(=O)[C@H](C)NC(=O)[C@@H]1CSSC[C@H](NC(=O)[C@H](CCCCN)NC(=O)[C@@H](N)CCCCNC(=O)CC[C@H](NC(=O)CCCCCCCCCCCCCCCCC(=O)O)C(=O)O)C(=O)N[C@@H](CC(N)=O)C(=O)N[C@@H]([C@@H](C)O)C(=O)N[C@@H](C)C(=O)N[C@@H]([C@@H](C)O)C(=O)N1)[C@@H](C)O)C(=O)N[C@@H](CC(C)C)C(=O)N1CCC[C@H]1C(=O)N1CCC[C@H]1C(=O)N[C@H](C(=O)N[C@@H](CC(N)=O)C(=O)N[C@H](C(=O)NCC(=O)N[C@@H](CO)C(=O)N[C@@H](CC(N)=O)C(=O)N[C@H](C(=O)N[C@@H](Cc1ccc(O)cc1)C(N)=O)[C@@H](C)O)C(C)C)[C@@H](C)O
B2: Peptide 130 (SEQ ID NO: 130) (peptide)
peptide: K([γGlu-C18 diacid])KCNTATCATQRLAEFL[Aib]HSSHNFGPILPPTNVGSNTY-NH2
modifications: disulfide 3-8; N-terminus assumed
SMILES: CC[C@H](C)[C@H](NC(=O)[C@@H]1CCCN1C(=O)CNC(=O)[C@H](Cc1ccccc1)NC(=O)[C@H](CC(N)=O)NC(=O)[C@H](Cc1c[nH]cn1)NC(=O)[C@H](CO)NC(=O)[C@H](CO)NC(=O)[C@H](Cc1c[nH]cn1)NC(=O)C(C)(C)NC(=O)[C@H](CC(C)C)NC(=O)[C@H](Cc1ccccc1)NC(=O)[C@H](CCC(=O)O)NC(=O)[C@H](C)NC(=O)[C@H](CC(C)C)NC(=O)[C@H](CCCNC(=N)N)NC(=O)[C@H](CCC(N)=O)NC(=O)[C@@H](NC(=O)[C@H](C)NC(=O)[C@@H]1CSSC[C@H](NC(=O)[C@H](CCCCN)NC(=O)[C@@H](N)CCCCNC(=O)CC[C@H](NC(=O)CCCCCCCCCCCCCCCCC(=O)O)C(=O)O)C(=O)N[C@@H](CC(N)=O)C(=O)N[C@@H]([C@@H](C)O)C(=O)N[C@@H](C)C(=O)N[C@@H]([C@@H](C)O)C(=O)N1)[C@@H](C)O)C(=O)N[C@@H](CC(C)C)C(=O)N1CCC[C@H]1C(=O)N1CCC[C@H]1C(=O)N[C@H](C(=O)N[C@@H](CC(N)=O)C(=O)N[C@H](C(=O)NCC(=O)N[C@@H](CO)C(=O)N[C@@H](CC(N)=O)C(=O)N[C@H](C(=O)N[C@@H](Cc1ccc(O)cc1)C(N)=O)[C@@H](C)O)C(C)C)[C@@H](C)O
B3: Peptide 131 (SEQ ID NO: 131) (peptide)
peptide: K([γGlu-C18 diacid])KCNTATCATQRLANFL[Aib]HSSHNFGPILPPTNVGSNTY-NH2
modifications: disulfide 3-8; N-terminus assumed
SMILES: CC[C@H](C)[C@H](NC(=O)[C@@H]1CCCN1C(=O)CNC(=O)[C@H](Cc1ccccc1)NC(=O)[C@H](CC(N)=O)NC(=O)[C@H](Cc1c[nH]cn1)NC(=O)[C@H](CO)NC(=O)[C@H](CO)NC(=O)[C@H](Cc1c[nH]cn1)NC(=O)C(C)(C)NC(=O)[C@H](CC(C)C)NC(=O)[C@H](Cc1ccccc1)NC(=O)[C@H](CC(N)=O)NC(=O)[C@H](C)NC(=O)[C@H](CC(C)C)NC(=O)[C@H](CCCNC(=N)N)NC(=O)[C@H](CCC(N)=O)NC(=O)[C@@H](NC(=O)[C@H](C)NC(=O)[C@@H]1CSSC[C@H](NC(=O)[C@H](CCCCN)NC(=O)[C@@H](N)CCCCNC(=O)CC[C@H](NC(=O)CCCCCCCCCCCCCCCCC(=O)O)C(=O)O)C(=O)N[C@@H](CC(N)=O)C(=O)N[C@@H]([C@@H](C)O)C(=O)N[C@@H](C)C(=O)N[C@@H]([C@@H](C)O)C(=O)N1)[C@@H](C)O)C(=O)N[C@@H](CC(C)C)C(=O)N1CCC[C@H]1C(=O)N1CCC[C@H]1C(=O)N[C@H](C(=O)N[C@@H](CC(N)=O)C(=O)N[C@H](C(=O)NCC(=O)N[C@@H](CO)C(=O)N[C@@H](CC(N)=O)C(=O)N[C@H](C(=O)N[C@@H](Cc1ccc(O)cc1)C(N)=O)[C@@H](C)O)C(C)C)[C@@H](C)O
B4: Peptide 132 (SEQ ID NO: 132) (peptide)
peptide: K([γGlu-C18 diacid])KCNTATCATQRLANFL[Aib]HSSPNFGPILPPTNVGSNTY-NH2
modifications: disulfide 3-8; N-terminus assumed
SMILES: CC[C@H](C)[C@H](NC(=O)[C@@H]1CCCN1C(=O)CNC(=O)[C@H](Cc1ccccc1)NC(=O)[C@H](CC(N)=O)NC(=O)[C@@H]1CCCN1C(=O)[C@H](CO)NC(=O)[C@H](CO)NC(=O)[C@H](Cc1c[nH]cn1)NC(=O)C(C)(C)NC(=O)[C@H](CC(C)C)NC(=O)[C@H](Cc1ccccc1)NC(=O)[C@H](CC(N)=O)NC(=O)[C@H](C)NC(=O)[C@H](CC(C)C)NC(=O)[C@H](CCCNC(=N)N)NC(=O)[C@H](CCC(N)=O)NC(=O)[C@@H](NC(=O)[C@H](C)NC(=O)[C@@H]1CSSC[C@H](NC(=O)[C@H](CCCCN)NC(=O)[C@@H](N)CCCCNC(=O)CC[C@H](NC(=O)CCCCCCCCCCCCCCCCC(=O)O)C(=O)O)C(=O)N[C@@H](CC(N)=O)C(=O)N[C@@H]([C@@H](C)O)C(=O)N[C@@H](C)C(=O)N[C@@H]([C@@H](C)O)C(=O)N1)[C@@H](C)O)C(=O)N[C@@H](CC(C)C)C(=O)N1CCC[C@H]1C(=O)N1CCC[C@H]1C(=O)N[C@H](C(=O)N[C@@H](CC(N)=O)C(=O)N[C@H](C(=O)NCC(=O)N[C@@H](CO)C(=O)N[C@@H](CC(N)=O)C(=O)N[C@H](C(=O)N[C@@H](Cc1ccc(O)cc1)C(N)=O)[C@@H](C)O)C(C)C)[C@@H](C)O
B5: Peptide 133 (SEQ ID NO: 133) (peptide)
peptide: K([γGlu-C18 diacid])KCNTATCATQRLANFL[Aib]HSSSNFGPILPPTNVGSNTY-NH2
modifications: disulfide 3-8; N-terminus assumed
SMILES: CC[C@H](C)[C@H](NC(=O)[C@@H]1CCCN1C(=O)CNC(=O)[C@H](Cc1ccccc1)NC(=O)[C@H](CC(N)=O)NC(=O)[C@H](CO)NC(=O)[C@H](CO)NC(=O)[C@H](CO)NC(=O)[C@H](Cc1c[nH]cn1)NC(=O)C(C)(C)NC(=O)[C@H](CC(C)C)NC(=O)[C@H](Cc1ccccc1)NC(=O)[C@H](CC(N)=O)NC(=O)[C@H](C)NC(=O)[C@H](CC(C)C)NC(=O)[C@H](CCCNC(=N)N)NC(=O)[C@H](CCC(N)=O)NC(=O)[C@@H](NC(=O)[C@H](C)NC(=O)[C@@H]1CSSC[C@H](NC(=O)[C@H](CCCCN)NC(=O)[C@@H](N)CCCCNC(=O)CC[C@H](NC(=O)CCCCCCCCCCCCCCCCC(=O)O)C(=O)O)C(=O)N[C@@H](CC(N)=O)C(=O)N[C@@H]([C@@H](C)O)C(=O)N[C@@H](C)C(=O)N[C@@H]([C@@H](C)O)C(=O)N1)[C@@H](C)O)C(=O)N[C@@H](CC(C)C)C(=O)N1CCC[C@H]1C(=O)N1CCC[C@H]1C(=O)N[C@H](C(=O)N[C@@H](CC(N)=O)C(=O)N[C@H](C(=O)NCC(=O)N[C@@H](CO)C(=O)N[C@@H](CC(N)=O)C(=O)N[C@H](C(=O)N[C@@H](Cc1ccc(O)cc1)C(N)=O)[C@@H](C)O)C(C)C)[C@@H](C)O
B6: Peptide 134 (SEQ ID NO: 134) (peptide)
peptide: K([γGlu-C18 diacid])KCNTATCATQRLANFL[Aib]HSSNNFGPILPPTPVGSNTY-NH2
modifications: disulfide 3-8; N-terminus assumed
SMILES: CC[C@H](C)[C@H](NC(=O)[C@@H]1CCCN1C(=O)CNC(=O)[C@H](Cc1ccccc1)NC(=O)[C@H](CC(N)=O)NC(=O)[C@H](CC(N)=O)NC(=O)[C@H](CO)NC(=O)[C@H](CO)NC(=O)[C@H](Cc1c[nH]cn1)NC(=O)C(C)(C)NC(=O)[C@H](CC(C)C)NC(=O)[C@H](Cc1ccccc1)NC(=O)[C@H](CC(N)=O)NC(=O)[C@H](C)NC(=O)[C@H](CC(C)C)NC(=O)[C@H](CCCNC(=N)N)NC(=O)[C@H](CCC(N)=O)NC(=O)[C@@H](NC(=O)[C@H](C)NC(=O)[C@@H]1CSSC[C@H](NC(=O)[C@H](CCCCN)NC(=O)[C@@H](N)CCCCNC(=O)CC[C@H](NC(=O)CCCCCCCCCCCCCCCCC(=O)O)C(=O)O)C(=O)N[C@@H](CC(N)=O)C(=O)N[C@@H]([C@@H](C)O)C(=O)N[C@@H](C)C(=O)N[C@@H]([C@@H](C)O)C(=O)N1)[C@@H](C)O)C(=O)N[C@@H](CC(C)C)C(=O)N1CCC[C@H]1C(=O)N1CCC[C@H]1C(=O)N[C@H](C(=O)N1CCC[C@H]1C(=O)N[C@H](C(=O)NCC(=O)N[C@@H](CO)C(=O)N[C@@H](CC(N)=O)C(=O)N[C@H](C(=O)N[C@@H](Cc1ccc(O)cc1)C(N)=O)[C@@H](C)O)C(C)C)[C@@H](C)O

What follows are binders tested against T1, human calcitonin receptor (assay: cell-based or functional assay).

Binder	EC50 (cAMP production) [nM]
B1	0.568
B2	6.69
B3	15.1
B4	3.85
B5	2.58
B6	2.22

What follows are binders tested against T2, human amylin receptor (calcitonin …) (assay: cell-based or functional assay).

Binder	EC50 (cAMP production) [nM]	Ratio (EC50 hCTR / EC50 hAMYR3)
B1	0.118	4.8
B2	0.446	15
B3	0.737	20.5
B4	0.416	9.3
B5	0.378	6.8
B6	0.281	7.9
